What was measured:
[1] = test system: GDF-15 mediated downregulation of NKG2D on NK cells; experiment: NKG2D surface expression on NK cells after GDF-15 treatment (flow cytometry); assay type: cell-based; details: 72 hours incubation
Description: FIG. 1: NKG2D Expression on NK Cells after Treatment with or without GDF-15. The cell surface expression of NKG2D was determined on NK cells after treatment with the indicated cytokines in the presence or absence of the anti-GDF-15 antibody mAb B1-23.
a) The NKG2D (Natural Killer Group 2D) receptor, which is expressed on NK cells and CD8+ T cells, is known to play an important role in the immune surveillance against tumors. Transformed as well as viral infected cells express ligands, which bind to the NKG2D receptor, thereby activating the cytotoxic effector functions of the described immune cells. In that way transformed cells can be detected and eliminated by the immune system.
After 72 hours incubation the immune cells were stained with the following FACS-antibodies: anti CD3, anti CD56, anti-NKG2D. Using this antibody combination, the experiment focused on NK cells and their NKG2D surface expression. The low NKG2D level on immune cells led to an impaired tumor/target cell lysis. The GDF-15 mediated downregulation of NKG2D was prevented by mAb B1-23.

[2] = test system: cancer cells; experiment: Cytotoxic effects of the antibody (different assays); assay type: cell-based
Text: The strongest antiproliferative effect was observed using the prostate cancer cell line LnCap, which produces lots of GDF-15.

[3] = Study No. 140123: body weight of UACC-257 inoculated mice (cancer-induced weight loss); assay type: in vivo, Balb/c^nu/nu mice; details: 38 days
Description: FIG. 5: Treatment of cancer cachexia with anti-GDF-15 antibodies. […] The changes of the body weight are depicted in percent as compared to the starting body weight on day 0, for a period of 38 days.
Treatment of cancer-induced weight loss with anti-GDF-15 antibodies. In the underlying animal study No. 140123, 10 Balb/c^nu/nu mice per treatment group were subcutaneously inoculated with 10×10^6 UACC-257 cells per animal in a 1:1 volume ratio with matrigel (100 μl cells+100 μl matrigel). The animals were treated on the same day with the respective antibodies, as indicated below:
The study was carried out in a double-blinded manner for the treatment with the antibodies and for the treatment with PBS.

[4] = Gel electrophoresis and coomassie staining of antibodies used in study No. 140123; assay type: physicochemical
Description: FIG. 6: Coomassie stain of antibodies used in the study No. 140123.
The quality of the humanized anti-GDF-15 antibody B1-23-H1L5 used in the study was tested by using gel electrophoresis and coomassie staining of the antibodies (see FIG. 6).

[5] = biological target: T1, hrGDF-15 (Homo sapiens, UniProt Q99988); experiment: Colorimetric ELISA binding to coated hrGDF-15; details: serial 1:3 dilution from 333 ng/ml; in comparison to B12
T1 sequence (Q99988 with tags, fused parts or gaps limits assumed): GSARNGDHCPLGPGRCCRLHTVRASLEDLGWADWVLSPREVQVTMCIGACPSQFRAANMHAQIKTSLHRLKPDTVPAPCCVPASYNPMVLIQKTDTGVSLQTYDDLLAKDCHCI
Description: Additionally, by using a colorimetric assay, it was confirmed that all anti-GDF-15 antibodies used in the study bound to GDF-15 in a concentration-dependent manner. To determine the binding of B1-23 antibody variants to GDF-15, a […] ELISA experiment was performed. […] Therefore, Maxisorp 96 well plates (Nunc) were coated with hrGDF-15 (25 ng protein per well, 50 μl volume) over night at 4° C. The following day, plates were washed to remove unbound protein (3 times with 150 μl of PBS 0.05% Tween®) and non-specific binding sites were blocked with 150 μl of PBS 1% BSA for 2 hours at room temperature. Again, plates were washed and different variants of B1-23 test antibodies were applied (50 μl volume). To inquire specificity of the antibody binding, endpoint dilution was performed starting from 333 ng/ml and 1:3 serial dilution. As background control, PBS 1% BSA was applied. Following binding for 1 hour at room temperature, wells were washed as described above. As secondary antibody HRP conjugated Anti-human IgG (Life technologies, 1:5000) was applied for 1 hour at room temperature. Wells were washed as described above to remove unbound secondary antibody. […] For analysis, optical density at 450 nm was quantified using the ELISA reader (Tecan Sunrise) and the corresponding Magellan software.

B1: mAb-B1-23: murine IgG2a (kappa) monoclonal anti-human GDF-15 antibody produced by hybridoma cell line B1-23, DSM ACC3142 (antibody, V domains shown)
VH: QVKLQQSGPGILQSSQTLSLTCSFSGFSLSTSGMGVSWIRQPSGKGLEWLAHIYWDDDKRYNPTLKSRLTISKDPSRNQVFLKITSVDTADTATYYCARSSYGAMDYWGQGTSVTVSS
VL: DIVLTQSPKFMSTSVGDRVSVTCKASQNVGTNVAWFLQKPGQSPKALIYSASYRYSGVPDRFTGSGSGTDFTLTISNVQSEDLAEYFCQQYNNFPYTFGGGTKLEIKRTVA
- GDF-15 mediated downregulation of NKG2D [1]: prevented
- cytotoxic effects of the antibody [2]: excluded
- body weight change compared to day 0 [3]: increase in body weight
- band appearance / aggregation in coomassie gel [4]: less sharp and at a higher molecular weight
- binding to GDF-15 in ELISA [5]: clearly concentration-dependent binding
